Two molecules from paper PMC12418378, “Intrinsically disordered region of Clr4/Suv39 regulates its enzymatic activity and ensures heterochromatin spreading” (Nucleic Acids Research, 2025) can be followed below.

Holding throughout (assay): pull-down; GST-fused Clr4 (0.2 nmol) on Glutathione Magnetic Agarose Beads, 0.2 nmol MBP-fused Clr4 in 200 μl of 10 mM Tris-HCl pH 7.5, 150 mM NaCl, 0.1 mM EDTA, 0.1% Triton X-100, 4°C, 2 h; SDS-PAGE and CBB staining; also at 0 mM NaCl and with pericentromeric RNA added
Details in all cases: both partners purified

Test [1] concerns the target T1, MBP-fused catalytic domain of Clr4 (MBP-Clr4-C, amino acids 192-490) (S. pombe, UniProt O60016 192-490).
T1 construct: Clr4, S. pombe, C-terminal catalytic domain, amino acids 192-490; cloned into pMALc2; source: E. coli BL21 (DE3), purified (Amylose Resin, dialysed)

The target of the next test is T2, MBP-Clr4-C 472–475E (S. pombe, UniProt O60016 192-490, 472–475E).
T2 construct: source: E. coli BL21 (DE3), purified (Amylose Resin, dialysed)

The target in another test is T3, MBP-Clr4-C 472–475A (S. pombe, UniProt O60016 192-490, 472–475A).
T3 construct: source: E. coli BL21 (DE3), purified (Amylose Resin, dialysed)
T3 sequence (O60016 other isoform, or with tags, fused parts or gaps 472–475A | 472–475A): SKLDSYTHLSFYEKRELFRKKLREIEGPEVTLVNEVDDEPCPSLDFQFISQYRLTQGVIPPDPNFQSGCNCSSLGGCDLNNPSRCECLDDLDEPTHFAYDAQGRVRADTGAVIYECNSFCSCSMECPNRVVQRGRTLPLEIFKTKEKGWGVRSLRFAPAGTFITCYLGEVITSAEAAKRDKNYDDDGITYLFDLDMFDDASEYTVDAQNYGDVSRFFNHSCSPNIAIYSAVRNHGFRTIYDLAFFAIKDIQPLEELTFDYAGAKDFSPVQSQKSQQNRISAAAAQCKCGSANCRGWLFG

T1 sequence (O60016 192-490): as the sequence (O60016 other isoform, or with tags, fused parts or gaps 472–475A | 472–475A) above, with A281K, A282L, A283R, A284R counted along it
T2 sequence (O60016 other isoform, or with tags, fused parts or gaps 472–475E | 472–475E): as the sequence (O60016 other isoform, or with tags, fused parts or gaps 472–475A | 472–475A) above, with A281E, A282E, A283E, A284E counted along it

B1: GST-Clr4-N3 (domain or fragment, S. pombe, UniProt O60016 1-126, looked up)
chain: MSPKQEEYEVERIVDEKLDRNGAVKLYRIRWLNYSSRSDTWEPPENLSGCSAVLAEWKRRKRRLKGSNSDSDSPHHASNPHPNSRQKHQHQTSKSVPRSQRFSRELNVKKENKKVFSSQTTKRQSR
notes: Clr4, S. pombe, residues 1-126; source: E. coli BL21 (DE3), purified (Glutathione Sepharose 4B, anion exchange SOURCE 15Q)
For B1, in test [1], the binding result is listed as “binds”.

B2: GST-fused Clr4 N-terminus (GST-Clr4-N, amino acids 1-191) (domain or fragment, S. pombe, UniProt O60016 1-191, looked up)
chain: MSPKQEEYEVERIVDEKLDRNGAVKLYRIRWLNYSSRSDTWEPPENLSGCSAVLAEWKRRKRRLKGSNSDSDSPHHASNPHPNSRQKHQHQTSKSVPRSQRFSRELNVKKENKKVFSSQTTKRQSRKQSTALTTNDTSIILDDSLHTNSKKLGKTRNEVKEESQKRELVSNSIKEATSPKTSSILTKPRNP
notes: Clr4, S. pombe, N-terminus comprising the CD and IDR, amino acids 1-191; cloned into pGEX6P-3; also called wild-type GST-Clr4-N; GST-Clr4-N2 (label worked out); source: E. coli BL21 (DE3), purified (Glutathione Sepharose 4B, anion exchange SOURCE 15Q)
For B2, the binding result (with MBP-Clr4-C 472–475E; with MBP-Clr4-C 472–475A; in test [1]) was “binds” in each case.
